The source of these data is paper PMC9972897 (Science immunology, 2023).

B1: sd1.151 (antibody, V domains shown)
VH: EVQLVESGGGLVKPGGSLRLSCAVSGFTFSNAWMTWVRQAPGKGLEWVGRIKTKPEGGTTDYATPVKGRFTISRDDSIDTLYLQMNSLKTEDTAVYYCSTFSSPDHWGQGTLVTVSS
VL: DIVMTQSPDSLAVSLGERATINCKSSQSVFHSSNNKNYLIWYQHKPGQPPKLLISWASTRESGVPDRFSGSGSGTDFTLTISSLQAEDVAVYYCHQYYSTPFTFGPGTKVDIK
B2: rbd.046 (antibody, V domains shown)
VH: EVQLVESGGGVVQPGRSLRLSCAASGFTFSHYGMHWVRQAPGKGLEWVAVISYDGSNKYYADSVKGRFTISRDNSKSTLYLQMNSLRAEDTAVYYCAKGEWYYDIFTGYYPYWGQGTLVTVSS
VL: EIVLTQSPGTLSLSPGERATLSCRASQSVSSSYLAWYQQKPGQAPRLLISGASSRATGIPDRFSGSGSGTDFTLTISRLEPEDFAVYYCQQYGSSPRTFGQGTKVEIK
B3: sd1.047 (antibody, V domains shown)
VH: EVQLVESGGGVVEPGRSLRLSCVASGFPFKNYGMHWVRQAPGKGLEWMAVISYDGRLEYYAESVQGRFTISRDTSRKTLYLQMDSLRVDDTAVYYCAKDGVMGFCSGDDCTPPFDSWGQGTLVTVSS
VL: QSALTQPASVSGSPGQSITISCTGTSSDVGGYNYVSWFQQYPGKAPQLLIYEVSNRPSGVSNRFSGSKSGNTASLTISGLQAEDEADYYCSSYAGSPYVFGIGTRVTVL
B4: sd1.127 (antibody, V domains shown)
VH: EVQLVESGGALVKPGGSLTLSCVASGFTFSHAWMTWVRQAPGKGLEWVGRIKTKTEGGTIDYAAPLRGRFTISRDDSKNTLYLRMNSLKIEDTAKYYCTTHSSPDYWGQGTLVTVSS
VL: DIQMTQSPSSLSASIGDRVTITCRASQGIGNSLLWYQQKRGKVPKLLIYAASTLQSGVPSRFSGSGSGTDFTLTISSLQPEDVATYYCQRYNSAPLTFGGGTKVEIK
B5: rbd.043 (antibody, V domains shown)
VH: QVQLVQSGAEVKKPGSSVKVSCKVSGGSFSNYGISWVRQAPGQGLEWMGGIIPLFGPADYAQKVQGRVTITADKSTSTAYMELRSLRSEDTAVYFCARGVEIVATIVGPLVREDHYYYYGMDVWGQGTTVTVSS
VL: not shown
B6: sd1.150 (antibody, V domains shown)
V domain 1: EVQLVESGGGVVQPGRSLRLSCAASGFTFSSHGMHWVRQAPGRGLEWVAVISFDGRNKFYVDSVKGRFTISRDNSKNTLYLHMNSLRAADTAVYYCAKDHDPDGSGSYFSNWFDAWGQGTLVTVSS
V domain 2: SYELTQPPSVSVSPGQTASITCSGDKLGDKYAYWYRQKPGQSPVVVIYQDNKRPSGIPERFSGSNSGNTATLTISGTQAMDEADYYCQAWDTYSGVFGTGTQVTVL
B7: sd1.100 (antibody, V domains shown)
VH: QVQLQESGPGLVKPSQTLSLTCSVSGDSITSGNYYWSWIRQHPGKGLEWIGNIFHTGNTYYNPSLKSRVTISIDTSKNQFSLKLSSVTAADTALYYCARDHKRLEGDWFDPWGQGSLVTVSS
VL: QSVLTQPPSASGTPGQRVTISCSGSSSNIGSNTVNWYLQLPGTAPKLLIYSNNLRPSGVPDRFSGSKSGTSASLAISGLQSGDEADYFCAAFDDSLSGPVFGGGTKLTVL
B8: sd1.032 (antibody, V domains shown)
VH: QVQLVQSGAEVKRPGSSVKVSCKASGGTFNNYAMTWVRQAPGQGLEWMGGIIPMLGTENYAQKFQGRVTITADESTSTAHMELSSLRSEDTAVYYCARLTVPTPHSYYSYGLDAWGQGTTVTVSS
VL: QSALTQPASVSGSPGQSITISCTGTSSDVGSYNLVSWFQQHAGRAPKLMIYEGNKRPSGISNRFSGSKSGNTASLTISGLQAEDEADYYCCSYAGSSTHVFGTGTKVTVL
B9: rbd.038 (antibody, V domains shown)
VH: QVQLVQSGAEVKKPGASVKVSCKASGYTFSGYYMHWVRQAPGQGLEWVGWISPTSGGTKYAQKFQGRVTMTRDTSITTVYMELNRLRSDDTAVYYCAREPFPYCTSDICHSNYFYYYAMDVWGQGTTVTVSS
VL: QSALTQPPSASGSPGQSVTISCTGSSSDLGDHNYVSWYQQHPGKAPKVMIYEVSKRPSGVPDRFSGSKSGNTASLTVSGLQAEDEADYYCSSYAGSLYVFGTGTKVTVL
B10: sd1.039 (antibody, V domains shown)
VH: EVQLVQSGAEVKKPGESLKISCKASGYSFPTYWIGWVRQMPGKGLEWMGIIYPGDSDTRYSPSFQGQVTISADKSISTAYLQWSSLKASDTAIYYCARYGDSHIDSWGQGTLVTVSS
VL: QSVLTQPRSASASLGASVTLNCTLSSGYSKYKVEWYQQRPGKGPRFLMRVGAGGIVGSKGDGIPDRFSVLGSGLNRYLIIKNIQQEDESDYHCGADHGSGSNFAYVVFGGGTKLTVL
B11: rbd.045 (antibody, V domains shown)
VH: QVQLQESGPGLVKPSETLSLTCTVSGGAFRSFFWTWIRQPPGKGLEWIGNIYYSGSTNYNPSLKSRVTISQDMSENQFSLKLSSVTAADTAVYYCARSQWLRGNFDHWGQGILVTVSS
VL: NFMLTQPHSVSESPGKTVTISCTATSGYIASNYVQWYQQRPGSAPTTVIYEDNQRPSGVPDRFSGSIDSSSNSASLTISGLKPEDEADYYCQSFDTAYAVFGGGTQLTVL
B12: rbd.035 (antibody, V domains shown)
VH: EVQLLESGGGLIEPGGSLRLSCAASGFPFNTFAMTWVRQPPGKGLEWVATISSRGDYTFYADFVKGRFSISRDNANNALWLDMSGLRAEDTALYYCAKGESGYDLYLYGLDLWGQGTTVTVSS
VL: DIQMTQSPSSLSASVGDGVTITCRASQNINNYLSWYQKKAGKAPKLLIYGASTLHSGVPSRFSGSGSGTDFTLTISSLQPEDFASYYCQQNSPTPPWTFGQGTKVEIK
B13: rbd.031 (antibody, V domains shown)
VH: EVQLVESGGGVVQPGRSLRLSCAASGFTFKTYGMHWVRQAPGKGLEWVAVISYEGSNEYYAESVKGRFTISRDNSKNTLYLHMNSLRAEDTAVYYCAKGEYYYHSSTYYYLDYWGRGTLVTVSS
VL: DIQMTQSPSTLSASVGDRVTITCRASQSISSWLAWYQQKPGKAPKVLIYDASSLQSGVPLRFSGSGSGTEFTLTISSLQPDDFATYYCQQYDTYWTFGQGTKVEIK
B14: sd1.107 (antibody, V domains shown)
VH: QVQLVQSGAEVKKPGSSVKVSCKASGGTFSSYAISWVRQAPGQGLEWMGGIIPMFGTTNYAQKFQGRVTITADESTSTAYMELSSLRSEDTAVYYCARVTHLNWRRGYEVGRISGAFDIWGQGTMVTVSS
VL: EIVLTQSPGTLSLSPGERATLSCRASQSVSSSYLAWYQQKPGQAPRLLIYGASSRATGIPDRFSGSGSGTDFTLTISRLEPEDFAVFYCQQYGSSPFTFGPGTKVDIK
B15: sd1.132 (antibody, V domains shown)
VH: QVQLVQSGTEVKKPGSSVKVSCKASGGTFSSYAISWVRQAPGQGLEWMGGIIPMFGAPNYAQKVQGRVTITADESTSTAYMELSSLRSEDTAVYYCARMEYSNSPGRGGYYFYSNGMDVWGQGTTVTVSS
VL: EIVLTQSPATLSLSPGERATLSCRASQSVSTYLAWLQQKPGQAPRLLMYDASNRASGIPARFSGSGSGTEFTLTISSLEPEDFAVYYCQQRTYWPLTFGGGTKVEIK
B16: sd1.102 (antibody, V domains shown)
VH: QVQLVQSGAEVKKPGSSVKVSCKASGGTFSSYAISWVRQAPGQGLEWMGGIIPLYGTANYAQKFQGRVTITADESTSTTYMELSSLTSEDTAVYYCVRFRGGDYYYYYGMDVWGQGTTVTVSS
VL: EIVMTQSPATLSVSPGESATLSCRASQTVSTNLAWYQQKPGQAPRLLIFGASTRATGIPARFSGSGSGTEFTLSISSLQSEDFAVYYCHQYNSRRTFGQGTKLEIK
B17: sd1.034 (antibody, V domains shown)
VH: EVQLVESGGGVVQPGRSLRLSCAASGFSFSNYGMHWVRQAPGKGLEWVAVISYDGSHKSFADSVKGRFTISRDNSKNTLNLQMNSLRREDTAVYYCATDQGGSLGYWGQGTLVTVSS
VL: QSALTQPASVSGSPGQSITISCTGTSGDVGGYNYVSWYQHHPGKAPKLMIYDVSNRPSGVSNRFSGSKSGNTASLTISGLQAEDEADYYCSSYTSTSTSWVFGGGTKLTVL
B18: sd1.129 (antibody, V domains shown)
VH: QVQLVQSGAEVKRPGSSVKVSCKASGGAFSNYAISWVRQAPGQGLEWMGGIIPIFGTTNYAQRFQGRVTISADESTGTAYMELSSLRFADTAIYYCARADAYSGSYYPSANWFDPWGQGTLVTVSS
VL: EIVLTQSPATLSLSPGERATLSCRASQSVSNYLAWYQQKPGQAPRLLIYDASNRATGIPARFSGSGSGTDFTLTISSLEPEDFAVYYCQQRQNWPPGWTFGQGTKVEIK
B19: rbd.048 (antibody, V domains shown)
VH: EVQLVESGGGLVQPGGSLRLSCAASGFTVSSNYMTWVRQAPGKGLEWVSVIYSGGSTFYTDSVKGRFTISRDNSKNTLYLQMNSLRAEDTAVYYCARDVVYYGMDVWGQGTTVTVSS
VL: DIQMTQSPSSLSASVGDRVTITCRASQSISSYLNWYQQKPGKAPKLLIYAASSLQSGVPSRFSGSGSGTDFTLTISSLQPEDFATYYCQESYSNSPYTFGQGTKLEIK
B20: sd1.033 (antibody, V domains shown)
VH: QVQLVQSGAEVKKPGSSVKVSCKASGGVYSTYAVSWVRQAPGQGLEWIGGIIPMFGTANYAQNFQGRVTITADESTRTAYMEVSSLRSEDTAVYYCASPSAPTYYYDSSRYYSFDYWGQGTLVTVSS
VL: EIVLTQSPGTLSLSPGERATLSCRASQSVSSNFLAWFQQKPGQPPRLLIYGASSRATGIPDRFSGSGSGTDFTLTISRLVPEDFAVYFCQQYGSSRYSFGQGTKLEIK
B21: sd1.103 (antibody, V domains shown)
VH: QVQLVQSGAEVKKPGSSMKVSCKASGGTLNNYAIIWVRQAPGQGLEWMGGIIPMFGAANYAQNFQGRVTITADESTRTAYLELSSLRSEDTAMYYCARVVIPYLGAHYYHYGVDVWGQGTTVTVSS
VL: B20 VL with S30T, F33Y, F37Y, P44A, T57A, S64N, V80E, F88Y, S98T
B22: sd1.108 (antibody, V domains shown)
VH: QVQLVQSGAEVKKPGASVKVSCKASGYTFTSYYIHWVRQTPGQGLEWMGIINPRGGSTSYPQKFQGRVSMTRDTSTSTVFMELSSLRSDDTAVYYCAREHREDTAMDNQPSDSWGQGTLVTVSS
VL: DIVMTQSPDSLSVSLGERATINCKSSRSVFYSSNNKSYLAWYQQKPGQPPKLLIYWASTRESGVRDRFSGSGSGTDFTLTISSLQAEDVAVYYCQQYYNTPYTFGQGTKLEIK

Residue numbers refer to the chain shown, from its start.

In the test the target is SD1-RBD of SARS-CoV-2 S (ancestral), aa 319-591 (SARS-CoV-2, ancestral (Wuhan-Hu-1; …, UniProt P0DTC2).
B1: the binding result is “binds”.

In the case of B2, the binding result was “binds”.

As for B3, the binding result is “binds”.

B4: the binding result is “binds”.

On to B5, for which the binding result is reported as “binds”.

Regarding B6, the binding result is listed as “binds”.

In the case of B7, the binding result is “binds”.

Consider B8, for which the binding result is “binds”.

In the case of B9, the binding result is given as “binds”.

B10: the binding result is “binds”.

B11: the binding result is reported as “binds”.

In the case of B12, the binding result was “binds”.

B13: the binding result is on record as “binds”.

On to B14, for which the binding result is listed as “binds”.

For B15, the binding result is given as “binds”.

As for B16, the binding result is on record as “binds”.

Regarding B17, the binding result is “binds”.

Turning to B18, the binding result is “binds”.

On to B19, for which the binding result is “binds”.

For the molecule B20, the binding result is “binds”.

Consider B21, for which the binding result is listed as “binds”.

Turning to B22, the binding result is listed as “binds”.
